Results: paper PMC2172828 (The Journal of Cell Biology, 2003)

Target: T1, GST–Cdc15p(1–405) (S. pombe, UniProt Q09822 1-405)
T1 sequence (looked up): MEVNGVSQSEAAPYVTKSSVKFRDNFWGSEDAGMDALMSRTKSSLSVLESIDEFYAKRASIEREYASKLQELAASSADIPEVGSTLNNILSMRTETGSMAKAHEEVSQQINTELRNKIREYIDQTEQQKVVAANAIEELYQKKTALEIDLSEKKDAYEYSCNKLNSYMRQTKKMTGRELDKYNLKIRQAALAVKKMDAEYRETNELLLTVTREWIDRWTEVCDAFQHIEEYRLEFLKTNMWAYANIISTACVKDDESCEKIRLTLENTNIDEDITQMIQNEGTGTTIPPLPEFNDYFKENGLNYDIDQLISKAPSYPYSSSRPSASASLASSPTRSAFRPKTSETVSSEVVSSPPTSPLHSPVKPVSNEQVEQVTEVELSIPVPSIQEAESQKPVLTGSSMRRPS
Assay: pull-down

binding result: binds
B1: MBP–Myo1p(727–1041) (domain or fragment, S. pombe, UniProt Q9Y7Z8 727-1041, looked up)
chain: ATRIQRAWRSYVRRRSEAAACIQKLWNRNKVNMELERVRNEGTKLLQGKKQRRRYSILGSRKFYGDYLSASKPNGTLWNTCGLSQNDHVIFSMRCEVLVHKLGRTSKPSPRQLVLTKKNLYLVITKIVDQKLTQQVEKKFAVSSIDSVGLTNLQDDWVAIRNKSSQNGDMFLRCFFKTEFITTLKRINRNIQVIVGPTIQYCRKPGKVQTVKTAKDETTKDYDYYKSGTIHVGTGLPPTSKSKPFPRLATGGSTAAARGPRPVVQNKPAATKPVSMPAAKSKPAPMANPVSTAQQTQNRPPAPAMQARPNTTQAA
